Data published in article PMC6640723 (2019).

Assays:
[1] = target: gp140UG37 (ARP698, Polymun) (HIV-1 strain UG037); assay: ELISA
[2] = target: recombinant gp41 (ARP680) (HIV-1); assay: ELISA

B1: VHH 2E7 (VHH)
VHH: DVQLQESGGGLVQPGGSLRLSCAASGNIVSIDAAGWFRQAPGKQREPVATILTGGATNYADSVKGRFTISRDNAKNTVYLQMNSLKPEDTAVYYCYAPMIYYGGRYSDYWGQGTQVTVS
B1 gave an IC50 [1] of 0.9 nM and an IC50 [2] of 3.2 nM.
